In test [1] the target is T1, wild-type human IGF-I receptor with C-terminal FLAG tag (human, UniProt P08069 31-1367).
T1 construct: Expressed on 293T cells, formalin fixed; also called positive control
In words: cell-based ELISA, 5 nM R11-16B on fixed 293T cells expressing the FLAG-tagged receptor; Mock cells gave 0.328. Here is the method: (§1) 293T cells were seeded in 10-cm dishes coated with poly-D-lysine in 6×10⁶ cells. On the next day, each plasmid DNA was introduced into the cells by lipofection. Two days later, the 293T cells were released with 0.05% trypsin/EDTA and suspended in the culture medium. The 293T cells were added to a 96-well plate (coated with poly-D-lysine) in 2×10⁴ cells/well and incubated overnight at 37° C. under 5% CO₂. The medium was removed from the 96-well plate. The plate was fixed with 10% buffered formalin (Mildform® 10NM, Wako), replaced by a blocking buffer (3% BSA/PBS/0.02% sodium azide), and used for the ELISA.
(§2) Each well was washed two times with a cleaning solution. A 2500-fold diluted solution of an anti-human IgG antibody ALP conjugate solution (2087-04, Southern Biotech) in the blocking buffer (50 μL) was added to each well and reacted for about one hour at room temperature. Each well was washed three times with a cleaning solution. A pNPP substrate (100 μL) was added to each well to initiate the reaction. The absorbances at 405 nm and 550 nm were measured after about one hour.
For orientation: An ELISA detects its analyte on a solid surface through an enzyme-linked reagent.

Test [2] concerns the target T2, Substitute 2 of CR domain (human IGF-I receptor G315S, S316T, C-terminal FLAG tag) (human, UniProt P08069 31-1367).
T2 construct: Expressed on 293T cells, formalin fixed; also called substitute 2 receptor
The test is described as above. Here is the method: as §1, §2

For test [3], the target named is T3, Substitute 1 of CR domain (human IGF-I receptor D245N, A247T, E294D, C-terminal FLAG tag) (human, UniProt P08069 31-1367).
T3 construct: Expressed on 293T cells, formalin fixed; also called substitute 1 receptor
The description is as above. Here is the method:
as §1, §2

Test [4] addresses T4, rat IGF-I receptor (rat, UniProt P24062 31-1370).
T4 construct: Whole entry as named; expressed on HEK293T cells; also called IGF-I receptor of rat; NP_434694
The experiment in a line: cell-based ELISA on HEK293T cells expressing the receptor. Here is the method: (§3) The HEK293T cells cultured for at least one night after the lipofection were added to a 96-well plate (coated with poly-D-lysine) in 4×10⁴ cells/well, and the plate further cultured for at least one night were used in the ELISA.
(§4) In the ELISA, 2 nM humanized antibody solutions in 1% BSA/1% FBS/PBS (100 μL) were added to respective wells and reacted for about one hour at 37° C. The wells were washed three times with a cleaning solution. An HRP conjugate solutions (100 μL) of an anti-human IgG antibody prepared at various concentrations with 1% BSA/1% FBS/PBS was added to the respective wells and reacted for about one hour at 37° C. Each well was washed three times with a cleaning solution. A TMB substrate (100 μL) was added to each well to initiate the reaction. Approximately 30 minutes later, 1M sulfuric acid (100 μL) was added to each well to measure the absorbances at 450 nm and 650 nm and calculate the difference of the values between 450 nm and 650 nm.

Test [5] has as its target T5, human IGF-I receptor (human, UniProt P08069 31-1367). In words: cell-based or functional assay.
Test [6] addresses T5, human IGF-I receptor. The experiment in a line: cell-based ELISA, 2 nM antibody on HEK293T cells expressing the receptor, A450-A650. The procedure: as §3, §4
The target in test [7] is T6, cynomolgus monkey IGF-I receptor (cynomolgus monkey, UniProt P08069 31-1367 (human entry)).
T6 construct: Whole entry as named; expressed on HEK293T cells; also called IGF-I receptor of cynomolgus monkey; XP_005560575
T6 sequence (P08069 other isoform, or with tags, fused parts or gaps limits assumed): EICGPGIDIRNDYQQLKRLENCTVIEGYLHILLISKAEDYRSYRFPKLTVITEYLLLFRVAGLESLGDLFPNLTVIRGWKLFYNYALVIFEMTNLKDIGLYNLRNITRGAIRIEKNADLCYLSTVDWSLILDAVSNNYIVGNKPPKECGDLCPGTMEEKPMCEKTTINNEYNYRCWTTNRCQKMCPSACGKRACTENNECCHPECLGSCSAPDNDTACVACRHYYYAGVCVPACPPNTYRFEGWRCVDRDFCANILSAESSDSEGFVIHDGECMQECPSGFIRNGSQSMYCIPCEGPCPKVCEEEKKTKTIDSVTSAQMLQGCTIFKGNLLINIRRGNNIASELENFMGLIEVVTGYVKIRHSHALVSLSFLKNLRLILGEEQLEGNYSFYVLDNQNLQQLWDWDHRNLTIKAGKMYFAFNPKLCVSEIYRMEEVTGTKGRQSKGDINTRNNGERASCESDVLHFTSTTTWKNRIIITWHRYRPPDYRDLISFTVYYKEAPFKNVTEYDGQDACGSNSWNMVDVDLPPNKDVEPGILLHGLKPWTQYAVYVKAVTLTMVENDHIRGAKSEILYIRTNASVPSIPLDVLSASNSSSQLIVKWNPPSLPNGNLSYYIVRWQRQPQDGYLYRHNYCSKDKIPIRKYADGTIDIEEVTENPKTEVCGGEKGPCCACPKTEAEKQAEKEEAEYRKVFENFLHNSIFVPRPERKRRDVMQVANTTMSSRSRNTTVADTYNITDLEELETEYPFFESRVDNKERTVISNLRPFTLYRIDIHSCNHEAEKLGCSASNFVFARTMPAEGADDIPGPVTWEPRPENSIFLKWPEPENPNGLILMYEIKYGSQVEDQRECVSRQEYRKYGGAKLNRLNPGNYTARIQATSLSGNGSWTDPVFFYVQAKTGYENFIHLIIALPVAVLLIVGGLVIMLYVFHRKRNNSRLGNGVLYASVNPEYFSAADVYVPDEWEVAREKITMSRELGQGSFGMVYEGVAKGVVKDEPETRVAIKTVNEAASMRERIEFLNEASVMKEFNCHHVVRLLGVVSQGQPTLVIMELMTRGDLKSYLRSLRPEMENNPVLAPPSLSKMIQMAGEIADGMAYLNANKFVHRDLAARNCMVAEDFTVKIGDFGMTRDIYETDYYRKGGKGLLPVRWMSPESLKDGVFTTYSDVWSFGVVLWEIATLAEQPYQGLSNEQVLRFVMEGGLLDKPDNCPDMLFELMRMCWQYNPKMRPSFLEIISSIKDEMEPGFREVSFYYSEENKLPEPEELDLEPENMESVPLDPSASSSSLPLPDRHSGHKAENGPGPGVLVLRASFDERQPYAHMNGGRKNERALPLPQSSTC
The test is described as above. Here is the method:
as §3, §4

For test [8], the target named is T4, rat IGF-I receptor. The test is described as above. The procedure: as §3, §4
The target of test [9] is T7, guinea pig IGF-I receptor (guinea pig, UniProt P08069 31-1367 (human entry)).
T7 construct: Whole entry as named; expressed on HEK293T cells; also called IGF-I receptor of guinea pig; XP_003475316
T7 sequence (P08069 other isoform, or with tags, fused parts or gaps limits assumed): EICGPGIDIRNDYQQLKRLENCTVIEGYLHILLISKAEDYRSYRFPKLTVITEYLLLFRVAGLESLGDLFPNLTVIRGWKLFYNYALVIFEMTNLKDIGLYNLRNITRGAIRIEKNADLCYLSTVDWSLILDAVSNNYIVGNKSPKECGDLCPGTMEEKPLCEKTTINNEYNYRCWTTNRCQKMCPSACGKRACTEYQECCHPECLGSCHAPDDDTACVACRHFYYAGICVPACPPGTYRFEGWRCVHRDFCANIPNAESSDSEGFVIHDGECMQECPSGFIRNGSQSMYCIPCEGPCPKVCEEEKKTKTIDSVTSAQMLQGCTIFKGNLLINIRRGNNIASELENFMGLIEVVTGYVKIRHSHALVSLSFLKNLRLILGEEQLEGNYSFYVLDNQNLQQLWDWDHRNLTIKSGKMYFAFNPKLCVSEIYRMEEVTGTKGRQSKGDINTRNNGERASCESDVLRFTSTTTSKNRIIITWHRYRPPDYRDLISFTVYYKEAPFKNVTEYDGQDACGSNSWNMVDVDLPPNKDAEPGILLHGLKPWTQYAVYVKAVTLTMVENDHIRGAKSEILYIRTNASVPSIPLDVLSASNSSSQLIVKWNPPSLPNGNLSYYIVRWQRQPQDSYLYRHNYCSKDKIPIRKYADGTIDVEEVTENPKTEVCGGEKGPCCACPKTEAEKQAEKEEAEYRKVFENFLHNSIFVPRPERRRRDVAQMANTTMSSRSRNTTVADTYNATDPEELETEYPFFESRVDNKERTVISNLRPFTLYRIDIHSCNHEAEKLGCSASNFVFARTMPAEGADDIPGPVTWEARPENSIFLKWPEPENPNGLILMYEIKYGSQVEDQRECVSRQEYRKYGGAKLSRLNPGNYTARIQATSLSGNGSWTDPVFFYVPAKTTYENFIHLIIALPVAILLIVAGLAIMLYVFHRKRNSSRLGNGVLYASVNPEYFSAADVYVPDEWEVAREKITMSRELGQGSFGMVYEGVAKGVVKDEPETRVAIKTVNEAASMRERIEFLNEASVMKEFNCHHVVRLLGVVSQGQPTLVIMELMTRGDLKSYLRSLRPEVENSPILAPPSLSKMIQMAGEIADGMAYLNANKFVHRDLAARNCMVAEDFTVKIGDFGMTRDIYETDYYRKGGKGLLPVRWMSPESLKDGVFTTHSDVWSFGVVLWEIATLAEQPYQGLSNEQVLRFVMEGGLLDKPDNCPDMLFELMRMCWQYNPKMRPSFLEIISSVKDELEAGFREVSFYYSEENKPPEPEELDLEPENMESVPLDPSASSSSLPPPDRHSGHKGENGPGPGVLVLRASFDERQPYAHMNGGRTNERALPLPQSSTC
The test is described as above. Here is the method: as §3, §4

Test [10] has as its target T2, Substitute 2 of CR domain (human IGF-I …). In words: cell-based ELISA on fixed 293T cells expressing the substitute receptor. Here is the method: as §1, §2
For test [11], the target named is T5, human IGF-I receptor. The experiment in a line: cell-based or functional assay. This is another data set of the same source.

Substitutions are numbered along the chain they refer to. Names may count otherwise.

T4 sequence (P24062 31-1370 limits assumed): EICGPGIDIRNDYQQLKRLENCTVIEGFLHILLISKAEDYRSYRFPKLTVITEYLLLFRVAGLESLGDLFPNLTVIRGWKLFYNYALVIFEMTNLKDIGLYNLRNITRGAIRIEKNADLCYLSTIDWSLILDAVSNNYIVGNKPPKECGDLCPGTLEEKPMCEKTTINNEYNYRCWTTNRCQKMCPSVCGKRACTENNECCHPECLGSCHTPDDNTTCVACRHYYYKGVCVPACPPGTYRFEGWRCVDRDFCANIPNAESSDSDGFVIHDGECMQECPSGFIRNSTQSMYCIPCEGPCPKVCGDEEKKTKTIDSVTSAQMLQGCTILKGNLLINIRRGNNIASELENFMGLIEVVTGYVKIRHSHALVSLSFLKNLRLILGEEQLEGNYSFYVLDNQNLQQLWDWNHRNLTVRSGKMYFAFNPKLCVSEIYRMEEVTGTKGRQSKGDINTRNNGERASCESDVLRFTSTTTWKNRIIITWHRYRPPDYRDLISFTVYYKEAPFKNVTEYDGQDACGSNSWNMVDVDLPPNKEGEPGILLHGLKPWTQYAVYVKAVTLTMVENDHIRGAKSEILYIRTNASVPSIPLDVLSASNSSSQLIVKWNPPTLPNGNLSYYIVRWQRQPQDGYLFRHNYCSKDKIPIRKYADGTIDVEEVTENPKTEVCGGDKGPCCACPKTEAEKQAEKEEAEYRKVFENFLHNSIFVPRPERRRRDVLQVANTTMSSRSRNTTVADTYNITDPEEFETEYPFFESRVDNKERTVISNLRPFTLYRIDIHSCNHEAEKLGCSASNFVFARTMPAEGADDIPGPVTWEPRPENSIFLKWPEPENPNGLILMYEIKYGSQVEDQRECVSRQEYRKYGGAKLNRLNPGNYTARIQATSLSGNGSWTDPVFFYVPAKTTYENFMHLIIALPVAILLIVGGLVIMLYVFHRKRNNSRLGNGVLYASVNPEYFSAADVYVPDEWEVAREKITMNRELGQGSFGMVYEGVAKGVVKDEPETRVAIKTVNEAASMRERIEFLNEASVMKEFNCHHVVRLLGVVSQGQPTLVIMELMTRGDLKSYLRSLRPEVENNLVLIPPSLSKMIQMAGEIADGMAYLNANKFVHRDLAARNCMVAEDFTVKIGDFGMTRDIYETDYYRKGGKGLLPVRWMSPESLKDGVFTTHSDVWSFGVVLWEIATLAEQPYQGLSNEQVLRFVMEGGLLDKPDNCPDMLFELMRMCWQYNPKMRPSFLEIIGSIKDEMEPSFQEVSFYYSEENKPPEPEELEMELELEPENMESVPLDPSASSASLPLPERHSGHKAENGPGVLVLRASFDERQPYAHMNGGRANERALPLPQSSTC
T5 sequence (P08069 31-1367 limits assumed): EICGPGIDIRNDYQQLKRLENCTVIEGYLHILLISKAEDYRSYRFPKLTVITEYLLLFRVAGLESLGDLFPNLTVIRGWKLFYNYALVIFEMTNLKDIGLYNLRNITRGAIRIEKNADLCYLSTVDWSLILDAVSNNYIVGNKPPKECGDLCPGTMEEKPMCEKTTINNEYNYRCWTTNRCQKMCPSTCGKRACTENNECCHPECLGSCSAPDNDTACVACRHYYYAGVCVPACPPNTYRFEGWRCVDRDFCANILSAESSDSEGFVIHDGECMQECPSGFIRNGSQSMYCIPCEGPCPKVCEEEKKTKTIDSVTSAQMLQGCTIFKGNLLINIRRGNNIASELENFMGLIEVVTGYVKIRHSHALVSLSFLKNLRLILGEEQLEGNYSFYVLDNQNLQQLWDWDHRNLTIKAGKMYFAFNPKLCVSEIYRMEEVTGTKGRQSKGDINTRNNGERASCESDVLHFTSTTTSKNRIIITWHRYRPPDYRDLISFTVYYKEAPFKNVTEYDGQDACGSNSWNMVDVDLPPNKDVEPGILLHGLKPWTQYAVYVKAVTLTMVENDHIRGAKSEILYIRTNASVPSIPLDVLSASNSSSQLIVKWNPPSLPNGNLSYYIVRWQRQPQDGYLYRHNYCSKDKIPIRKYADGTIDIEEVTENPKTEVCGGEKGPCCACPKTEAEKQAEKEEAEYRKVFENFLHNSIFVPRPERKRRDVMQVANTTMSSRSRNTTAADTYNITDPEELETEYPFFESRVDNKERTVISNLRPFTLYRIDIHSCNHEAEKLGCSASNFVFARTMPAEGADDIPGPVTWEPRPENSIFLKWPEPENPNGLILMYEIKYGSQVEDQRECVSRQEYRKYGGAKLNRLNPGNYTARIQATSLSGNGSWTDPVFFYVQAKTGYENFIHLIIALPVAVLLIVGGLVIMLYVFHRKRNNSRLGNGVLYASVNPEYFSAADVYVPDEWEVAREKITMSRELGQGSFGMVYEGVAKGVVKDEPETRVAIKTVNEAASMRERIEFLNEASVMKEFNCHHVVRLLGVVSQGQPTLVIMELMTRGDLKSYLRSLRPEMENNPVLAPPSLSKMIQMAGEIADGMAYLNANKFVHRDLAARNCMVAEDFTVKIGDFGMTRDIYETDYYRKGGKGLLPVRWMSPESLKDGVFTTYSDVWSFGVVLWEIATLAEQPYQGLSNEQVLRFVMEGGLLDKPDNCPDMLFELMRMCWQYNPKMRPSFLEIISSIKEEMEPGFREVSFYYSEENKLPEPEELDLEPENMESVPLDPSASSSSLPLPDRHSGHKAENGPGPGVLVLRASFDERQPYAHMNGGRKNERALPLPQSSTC

B1: anti-IGF-I receptor humanized antibody R11-16B (antibody, human IgG4, V domains shown)
VH: QVQLVQPGAELVKPGASVKVSCKAPGYTFTSYWMHWVRQAPGQGLEWIGETNPSNSVTNYNEKFKSKATLTVDTSTSTVYMELSSLRSEDTAVYYCTIGRGRGFAYWGQGTLVTVSS
VL: DIQMTQSPSSLSASVGDRVTITCRASQNINFWLSWYQQKPGKAPKLLIYKASNLHTGVPSRFSGSGSGTDFTFTISSLQPEDIATYYCLQGQSYPYTFGQGTKLEIK
notes: Heavy chain constant region: human IgG4 S228P variant; Expressed in Expi293, protein A purified; also called R11-16B antibody; R11-16VH + R11-16VL-C36Y
Take B1: the “Avidity (absorbance, R11-16B added minus not added)” value in test [1] was determined as 0.835 absorbance; in test [2] it was 0.308 absorbance; in [3], 0.885 absorbance. In addition, the results for the binding result in [4] and in test [10] were “no binding (tested: 2 nM)” and “no binding (tested: 5 nM)”, respectively. For the same molecule, the “EC50 of proliferation activity on human myoblast cells” value (from here on “EC50 of proliferation activity”) in [5] was 2 pM. The “Avidity (relative to control HEK293T cells = 1)” value in test [6] is 3.4 fold of control cells; in [7], 3.3 fold of control cells; in test [8] it was 0.8 fold of control cells; in test [9] it was 3.3 fold of control cells. Further, the “Proliferation activity on human myoblast cells (%), 0.005 nM, Experiment 1” value in [11] was found to be 147%. In addition, the “Proliferation activity on human myoblast cells (%), 0.005 nM, Experiment 2” value in test [11] stood at 148%. Besides, the “Proliferation activity on human myoblast cells (%), 0.5 nM, Experiment 1” value in [11] amounted to 164%. For the same molecule, the “Proliferation activity on human myoblast cells (%), 0.5 nM, Experiment 2” value in test [11] was 164%.

B2: anti-IGF-I receptor humanized antibody R11-16D (antibody, human IgG4, V domains shown)
VH: B1 VH
VL: B1 VL with Y36S
notes: also called R11-16D antibody; R11-16VH + R11-16VL-C36S
Consider B2, for which the binding result in test [4] is “no binding (tested: 2 nM)”. Further, the “EC50 of proliferation activity” value in test [5] is 2 pM. Further, the “Avidity (relative to control HEK293T cells = 1)” value in [6] was 3.4 fold of control cells. Moreover, in test [7], the “Avidity (relative to control HEK293T cells = 1)” value is 3.4 fold of control cells. In addition, in [8], the “Avidity (relative to control HEK293T cells = 1)” value is 0.9 fold of control cells. In test [9], the “Avidity (relative to control HEK293T cells = 1)” value is 3.3 fold of control cells. Further, in test [11], the “Proliferation activity on human myoblast cells (%), 0.005 nM, Experiment 1” value worked out at 144%; the “Proliferation activity on human myoblast cells (%), 0.005 nM, Experiment 2” value is 149%; the “Proliferation activity on human myoblast cells (%), 0.5 nM, Experiment 1” value was determined as 160%; the “Proliferation activity on human myoblast cells (%), 0.5 nM, Experiment 2” value was 169%.

B3: anti-IGF-I receptor humanized antibody R11-16C (antibody, human IgG4, V domains shown)
VH: B1 VH
VL: B1 VL with Y36A
notes: also called R11-16C antibody; R11-16VH + R11-16VL-C36A
B3: the binding result in [4] is reported as “no binding (tested: 2 nM)”. Moreover, the “EC50 of proliferation activity” value in test [5] worked out at 2 pM. The “Avidity (relative to control HEK293T cells = 1)” value in test [6] was 3.4 fold of control cells. Also, in test [7], the “Avidity (relative to control HEK293T cells = 1)” value was 3.3 fold of control cells. The “Avidity (relative to control HEK293T cells = 1)” value in test [8] is 0.9 fold of control cells. The “Avidity (relative to control HEK293T cells = 1)” value in test [9] is 3.3 fold of control cells. Also, in test [11], the “Proliferation activity on human myoblast cells (%), 0.005 nM, Experiment 1” value came out at 150%; the “Proliferation activity on human myoblast cells (%), 0.005 nM, Experiment 2” value was determined as 143%; the “Proliferation activity on human myoblast cells (%), 0.5 nM, Experiment 1” value amounted to 178%; the “Proliferation activity on human myoblast cells (%), 0.5 nM, Experiment 2” value amounted to 172%.

B4: anti-IGF-I receptor humanized antibody R11-16E (antibody, human IgG4, V domains shown)
VH: B1 VH
VL: B1 VL with Y36F
notes: also called R11-16E antibody; R11-16VH + R11-16VL-C36F
Take B4: the binding result in test [4] is on record as “no binding (tested: 2 nM)”. Also, the “EC50 of proliferation activity” value in [5] amounted to 2 pM. Moreover, the “Avidity (relative to control HEK293T cells = 1)” value in [6] is 3.7 fold of control cells. Further, the “Avidity (relative to control HEK293T cells = 1)” value in test [7] was 3.7 fold of control cells. For the same molecule, the “Avidity (relative to control HEK293T cells = 1)” value in test [8] was 0.8 fold of control cells. Besides, the “Avidity (relative to control HEK293T cells = 1)” value in test [9] is 3.4 fold of control cells. Further, in [11], the “Proliferation activity on human myoblast cells (%), 0.005 nM, Experiment 1” value turned out to be 150%; the “Proliferation activity on human myoblast cells (%), 0.005 nM, Experiment 2” value amounted to 143%; the “Proliferation activity on human myoblast cells (%), 0.5 nM, Experiment 1” value was found to be 166%; the “Proliferation activity on human myoblast cells (%), 0.5 nM, Experiment 2” value is 164%.

B5: anti-IGF-I receptor humanized antibody R11-16F (antibody, human IgG4, V domains shown)
VH: B1 VH
VL: B1 VL with Y36C
notes: also called R11-16F antibody; R11-16VH + R11-16VL-C36
Consider B5, for which, in [4], the binding result is given as “no binding (tested: 2 nM)”. Further, the “EC50 of proliferation activity” value in test [5] was determined as 2 pM. The “Avidity (relative to control HEK293T cells = 1)” value in [6] is 3.4 fold of control cells. Moreover, the “Avidity (relative to control HEK293T cells = 1)” value in test [7] is 3.3 fold of control cells. In addition, the “Avidity (relative to control HEK293T cells = 1)” value in test [8] is 0.9 fold of control cells. Further, in test [9], the “Avidity (relative to control HEK293T cells = 1)” value was 3.3 fold of control cells. Besides, in test [11], the “Proliferation activity on human myoblast cells (%), 0.005 nM, Experiment 1” value stood at 146%; the “Proliferation activity on human myoblast cells (%), 0.005 nM, Experiment 2” value is 148%; the “Proliferation activity on human myoblast cells (%), 0.5 nM, Experiment 1” value was 161%; the “Proliferation activity on human myoblast cells (%), 0.5 nM, Experiment 2” value worked out at 156%.
